{"source": "patent US8927230B2", "about": "“C-terminal modification of polypeptides” (EUCODIS Bioscience GmbH, priority 2004, dated 2015)", "molecules": {"B1": {"name": "Tn K60E, E151H, N143H, D189K: mutated anionic rat trypsin II, without signal sequence and pro-sequence (SEQ ID NO: 1), with K60E, N143H, E151H, D189K (protein)", "chain": "IVGGYTCQENSVPYQVSLNSGYHFCGGSLINDQWVVSAAHCYESRIQVRLGEHNINVLEGNEQFVNAAKIIKHPNFDRKTLNNDIMLIKLSSPVKLNARVATVALPSSCAPAGTQCLISGWGHTLSSGVNHPDLLQCLDAPLLPQADCEASYPGKITDNMVCVGFLEGGKKSCQGDSGGPVVCNGELQGIVSWGYGCALPDNPGVYTKVCNYVDWIQDTIAAN"}}, "molecular_target": "T1, N^α-benzoylated peptides of SEQ ID NOs: 2-18 (Rattus norvegicus, UniProt P00763, D194K/E154H/K66E/N146H)", "T1 construct": "made in house; host or cells: E. coli or yeast (general procedure; the host actually used is not fixed)", "T1 sequence (P00763 24-246 K66E/N146H/E154H/D194K)": "B1 chain", "test": "Influence of the recognition sequence on the rate of reaction catalyzed by the trypsin variant (HPLC, peptide consumption)", "assay_type": "biochemical", "conditions": "1 mM peptide, 20 μM trypsin variant, 100 μM ZnCl2, 0.1 M Pipes/Tris-buffer pH 8.0, 30° C.", "description": "Variant trypsin according to the present invention has been tested for catalytic activity upon peptide substrates with different peptide sequences at or close to the cleavage site. The initial rate (v) of peptide consumption is given in nM/min\nThe N^α-benzoylated peptides of SEQ ID NOs: 2-18 have been synthesized by conventional solid-phase peptide synthesis using Fmoc-chemistry and a preloaded Wang-resin. The respective amino acid building blocks are commercially available and were purchased from various suppliers.\n1 ml reaction volume containing 1 mM N^α-benzoylated peptide dissolved in 0.1 M Pipes/Tris-buffer pH 8.0; 20 μM trypsin variant Tn K60E, E151H, N143H, D189K; 100 μM ZnCl2 was stirred at 30° C. After defined time intervals, the reactions were terminated by adding of 1% trifluoroacetic acid in methanol/water (1:1, v/v). The quenched reaction mixtures were analyzed by analytical HPLC. The identity of the final products was verified by mass spectroscopy.", "data": [{"molecule": "B1", "values": [{"measurement": "cleavage site preference (substrate specificity from initial rates of peptide consumption, FIG. 4)", "value": "strong preference for a cleavage site comprising L, F or Y in position P1, R or K in position P1′ and His in position P2′"}]}]}
